# Laboratory results taken from article PMC4447067.
# Tests used:
# Conditions in all cases: GMSA: K-glu100 buffer (40 mM HEPES pH 8.0, 10 mM MgCl2, 100 mM K glutamate, 4 mM DTT, 500 ug/ml BSA), 15 min at 37 C, 1 nM DNA, 18-150 nM RNA polymerase …
# [1] = target: T1, EsigmaS RNA polymerase holoenzyme (reconstituted) (UniProt P13445+P0A7Z4+P0A8V2+P0A8T7+P0A800); assay: KMnO4 footprinting
# [2] = target: T2, Esigma70 RNA polymerase holoenzyme (reconstituted) (UniProt P00579+P0A7Z4+P0A8V2+P0A8T7+P0A800); assay: KMnO4 footprinting
# [3] = target: T1, EsigmaS RNA polymerase holoenzyme (reconstituted); assay: EMSA
# [4] = target: T2, Esigma70 RNA polymerase holoenzyme (reconstituted); assay: EMSA
sequence,measurement,setting,value
GATGGCGATAACTTCACTGGTGCGAAATGCGACCGAAGCAACCGCGCCATTACCGTCAATAGTAATCATATGACACCCTTACATTGCGCAAATGAGGGGCGCACGAAATTGCTGCGCGCCCAGTAGTAATCTTTCAATTTTAGCAAATGGCTTTCTTCTGCATTTTCGCTTTTGTGTCCCCCACATCAGCGTAATGAATGTTTTGATCAAACAGAGGGCAAAAAAATAGCCATAAAAAAGTAAAAATGCG (double strand) [ydbK promoter fragment],binding,[1],binds
same,binding,[2],binds
same,binding,[3],binds
TATTCAGTCGCTGAAAAGCCGCTACGGCGAAAGTGAAGAGATCCTGTCGCTGCTTAATCTTTATCATAATCTGCTGCGGGAATGGTCGGAGATCTGATGCTTGAACTGCCCGAGTTCGTCCCTGGATTAGCTACACTTAACTGTACAAGTATTGATATGGGGAGGTCGATATGGCATCCGGTTGGGCTAACGATGACGCCGTCAACGAACAGATCAACAGTACAATT (double strand) [ybiI promoter fragment],binding,[1],binds
same,binding,[2],binds more weakly
same,binding,[3],binds
same,binding,[4],binds more weakly
